The target of the assay is H. pylori-bullfrog recombinant ferritin (ferritin nanoparticle) (bullfrog (Rana catesbeiana) | Helicobacter pylori). Kind of assay: SEC; concentrated supernatant (100-kDa MWCO TFF) on Superdex 200 Increase 10/300 GL, degassed PBS, 0.4 ml/min; size from LMW/HMW calibration standards; self-assembly of the monomer into the nanoparticle. On the technique in general: Size exclusion chromatography separates by hydrodynamic size, large species first.

For orientation: stoichiometry N means a count of units in the complex or per binding partner.

Take “H. pylori-bullfrog recombinant ferritin (ferritin nanoparticle)”: the stoichiometry N worked out at 24.

The values above are taken from PMC8092224.
